From patent publication US7393670B2, “Tyrosyl-tRNA synthetase variants” (Japan Science and Technology Agency, priority 2001, dated 2008)

Assays:
[1] = tested on: wheat germ cell-free translation system; experiment: Amber suppression in wheat germ cell-free protein synthesis system (c-H-Ras, 32nd codon amber); type: biochemical
Source text: Production of the protein containing iodotyrosine was attempted by the reaction by a batch method in a wheat germ cell-free protein synthesis system using the resultant VC and an amber suppressor tRNA derived from tyrosine tRNA of E. coli. A short chain type of c-H-Ras added His-tag at the C-terminus via a spacer sequence (Milburn et al., Science 247:939-45, 1990) was used as the target protein. In translation where the template was mRNA made from a construction where the 32nd codon of this protein was replaced by the amber codon, the production of the protein in full length was dependent on coexistence of both TyrRS and the suppressor tRNA (FIG. 2). This proves that the suppressor tRNA used is scarcely aminoacylated by the endogenous aminoacyl-tRNA synthetase in the wheat germs. A synthetic quantity by the amber suppression was 30 to 40% of that of a control with no amber codon. In order to increase the synthetic quantity of the protein, the reaction by the suppression was carried out for 3 days using a dialysis method. […]
The translation reaction was carried out by further adding iodotyrosine at a final concentration of 0.6 mM in addition to the condition of the kit. […] Using an image analyzer FLA-2000 (Fujifilm, Tokyo, Japan), counts of RI of bands on the gel were quantified, or protein bands stained using Cypro-tangerine protein gel stain (Molecular probes) on the gel were quantified.

[2] = tested on: tyrosine or 3-iodotyrosine for the full-length tRNA; experiment: Aminoacylation of full-length tRNA by acidic polyacrylamide gel electrophoresis (Wolfson); type: biochemical; conditions: acidic PAGE; 200 μM amino acid, enzyme 50 nM, 37° C. for 3 min
Experimental: In the third method, levels of aminoacylation activity in the presence of tyrosine or 3-iodotyrosine for the full-length tRNA were assayed by the same method as. acidic polyacrylamide gel electrophoresis described by Wolfson et al. (Wolfson, A. D. et al., RNA, 4:1019-1023, 1998). The result is shown in FIG. 1 as a photo, substitute for a drawing.
In the third method, the aminoacylation activity for tyrosine or 3-iodotyrosine for tRNA in full length was assayed by the same method as acidic polyacrylamide electrophoresis by the method of Wolfson et al. (Wolfson, A. D. et al., RNA, 4:1019-1023, 1998). Tyrosine or iodotyrosine at 200 μM and the enzyme at 50 nM were incubated at 37° C. for 3 min, and subsequently the electrophoresis was carried out. The result of the aminoacylation activity of the enzymes with double mutations are shown on the photo, substitute for a drawing, in FIG. 1. In FIG. 1, left three lanes are from the wild-type enzyme, middle three lanes are from the enzyme modified at position 37 with valine (37V) and right three lanes are from the enzyme modified at positions 37 and 195 with valine and cysteine (VC), respectively. Three lanes in each group show the case without the addition of the amino acid (w/o aa), the case with the addition of 3-iodotyrosine (200 μM) (1-Tyr), and the case with the addition of tyrosine (200 μM) (Tyr), respectively from the left.

B1: VC: E. coli TyrRS double variant: position 37 Valine, position 195 Cysteine (protein, UniProt P0AGJ9 2-424, looked up, variant Y37V Q195C)
Tyrosine--tRNA ligase: ASSNLIKQLQERGLVAQVTDEEALAERLAQGPIALVCGFDPTADSLHLGHLVPLLCLKRFQQAGHKPVALVGGATGLIGDPSFKAAERKLNTEETVQEWVDKIRKQVAPFLDFDCGENSAIAANNYDWFGNMNVLTFLRDIGKHFSVNQMINKEAVKQRLNREDQGISFTEFSYNLLQGYDFACLNKQYGVVLCIGGSDQWGNITSGIDLTRRLHQNQVFGLTVPLITKADGTKFGKTEGGAVWLDPKKTSPYKFYQFWINTADADVYRFLKFFTFMSIEEINALEEEDKNSGKAPRAQYVLAEQVTRLVHGEEGLQAAKRITECLFSGSLSALSEADFEQLAQDGVPMVEMEKGADLMQALVDSELQPSRGQARKTIASNAITINGEKQSDPEYFFKEEDRLFGRFTLLRRGKKNYCLICWK
amber suppression (full-length translation product, SDS-PAGE) ([1]; FIG. 2, 14C-leucine labeled products): amber suppression was observed only when both TyrRS-VC variant and suppressor tRNA were present | quantity of the production of protein ([1]; dialysis method, 3 days): ≥ 0.1 mg per ml of reaction solution | specificity for the tyrosine analogue (attachment of amino acid to tRNA) [2]: high specificity for the tyrosine analogue
